T1: Clb2 (aa 187-491), wild-type (S. cerevisiae, UniProt P24869 187-491)
T1 construct: Clb2, major mitotic B-type cyclin of S. cerevisiae, aa 187-491; also called wild-type Clb2; source: E. coli BL21(DE3) Star, pET28, purified (Ni-NTA, S200 gel filtration)
T1 sequence (looked up): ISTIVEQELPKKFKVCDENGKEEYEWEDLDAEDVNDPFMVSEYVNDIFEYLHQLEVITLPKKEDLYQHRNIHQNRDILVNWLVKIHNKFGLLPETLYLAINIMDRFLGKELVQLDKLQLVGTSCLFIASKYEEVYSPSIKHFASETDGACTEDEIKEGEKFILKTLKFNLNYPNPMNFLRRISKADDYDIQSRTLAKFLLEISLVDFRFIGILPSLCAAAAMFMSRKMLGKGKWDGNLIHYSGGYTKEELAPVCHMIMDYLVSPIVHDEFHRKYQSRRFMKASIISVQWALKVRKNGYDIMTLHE

T2: Clb2-pp mutant (R366A, R379A, K383A), aa 187-491 (S. cerevisiae, UniProt P24869 187-491, R366A | R379A | K383A)
T2 construct: also called PP mutant Clb2; source: E. coli BL21(DE3) Star, pET28, purified (Ni-NTA, S200 gel filtration)
T2 sequence (looked up): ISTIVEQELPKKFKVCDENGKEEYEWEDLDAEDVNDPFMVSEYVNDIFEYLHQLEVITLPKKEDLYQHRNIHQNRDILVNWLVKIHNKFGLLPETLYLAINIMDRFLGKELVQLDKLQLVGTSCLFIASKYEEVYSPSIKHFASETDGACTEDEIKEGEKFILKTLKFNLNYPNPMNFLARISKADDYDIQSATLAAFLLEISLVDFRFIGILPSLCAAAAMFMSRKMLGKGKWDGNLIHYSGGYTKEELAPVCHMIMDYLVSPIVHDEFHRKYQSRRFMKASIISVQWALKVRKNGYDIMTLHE

B1: Cdk1 (Cdc28), T169-phosphorylated (enzyme)
chain: not shown
modifications: phosphothreonine at 169 (by Cak1)
notes: Cdk1 (Cdc28) of S. cerevisiae, made as a GST-TEV-Cdk1 fusion; no TEV cleavage is described; the pooled fractions are called GST-Cdk1; also called GST-Cdk1; phosphorylated Cdk1; source: Sf9, baculovirus, purified (Glutathione Sepharose, S200 gel filtration); phosphorylated with purified Cak1
B2: Cks1, wild-type (natural protein, S. cerevisiae, UniProt P20486 1-150, looked up)
chain: MYHHYHAFQGRKLTDQERARVLEFQDSIHYSPRYSDDNYEYRHVMLPKAMLKVIPSDYFNSEVGTLRILTEDEWRGLGITQSLGWEHYECHAPEPHILLFKRPLNYEAELRAATAAAQQQQQQQQQQQQQQQQHQTQSISNDMQVPPQIS
notes: Cks1 of S. cerevisiae; also called wild-type Cks1; source: E. coli BL21(DE3) Star, purified (boiling, ammonium sulfate, S200 gel filtration)
B3: Cks1 mutant (R33E, S82E, R102A) (natural protein, S. cerevisiae, UniProt P20486 1-150, looked up)
chain: MYHHYHAFQGRKLTDQERARVLEFQDSIHYSPEYSDDNYEYRHVMLPKAMLKVIPSDYFNSEVGTLRILTEDEWRGLGITQELGWEHYECHAPEPHILLFKAPLNYEAELRAATAAAQQQQQQQQQQQQQQQQHQTQSISNDMQVPPQIS
notes: also called mutant Cks1; source: E. coli BL21(DE3) Star, purified (boiling, ammonium sulfate, S200 gel filtration)

Assays:
Settings in all cases: both partners purified
[1] = biological target: T1, Clb2 (aa 187-491), wild-type; assay: reconstitution of an active kinase complex by mixing; 10.5 uM Cak1-phosphorylated Cdk1 and 10.5 uM Clb2, on ice 60 min, then desalted; the complex is known by its kinase activity only
[2] = biological target: T2, Clb2-pp mutant (R366A, R379A, K383A), …; assay: as above
[3] = biological target: T3, Clb2-Cdk1 complex, wild-type Clb2 (S. cerevisiae, UniProt P24869 187-491; P00546 1-298, phosphothreonine at 169 (by Cak1)); assay: reconstitution of an active kinase complex by mixing; Clb2-Cdk1 combined with equimolar Cks1; no separate test of association
T3 construct: Clb2 of S. cerevisiae, aa 187-491; Cdk1 (Cdc28) of S. cerevisiae, made as a GST-TEV-Cdk1 fusion; formed before Cks1 was added; also called wild-type Clb2-Cdk1; active Clb2-Cdk1; source: assembled from purified Clb2 (E. coli) and purified Cak1-phosphorylated Cdk1 (Sf9), desalted
T3 sequence (P00546 whole entry, the tested form may be a part, one chain of several): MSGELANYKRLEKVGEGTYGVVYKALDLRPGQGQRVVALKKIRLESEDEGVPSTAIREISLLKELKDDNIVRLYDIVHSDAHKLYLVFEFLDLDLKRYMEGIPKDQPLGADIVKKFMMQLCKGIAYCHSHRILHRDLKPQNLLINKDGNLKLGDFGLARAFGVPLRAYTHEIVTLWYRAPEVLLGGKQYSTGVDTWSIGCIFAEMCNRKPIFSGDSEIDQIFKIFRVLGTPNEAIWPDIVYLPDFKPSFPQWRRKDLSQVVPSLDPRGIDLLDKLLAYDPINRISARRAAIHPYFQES

[4] = biological target: T4, Clb2-Cdk1 complex, Clb2-pp mutant (S. cerevisiae, UniProt P24869 187-491; P00546 1-298, R366A | R379A | K383A, phosphothreonine at 169 (by Cak1)); assay: as above
T4 construct: Clb2 of S. cerevisiae, aa 187-491, phosphate-pocket mutant; Cdk1 (Cdc28) of S. cerevisiae, made as a GST-TEV-Cdk1 fusion; formed before Cks1 was added; also called clb2-pp Clb2-Cdk1; PP mutant Clb2-Cdk1; source: assembled from purified Clb2-pp (E. coli) and purified Cak1-phosphorylated Cdk1 (Sf9), desalted
T4 sequence (P00546 whole entry, stated change not applied, the tested form may be a part, one chain of several): as the sequence (P00546 whole entry, the tested form may be a part, one chain of several) above

Binder	binding result [1]	binding result [2]	binding result [3]	binding result [4]
B1	binds	binds		
B2			binds	binds
B3			binds	binds
